# Assay results: PMC7717453, “A study of Rose Bengal against a 2-keto-3-deoxy-D-manno-octulosonate cytidylyltransferase as an antibiotic candidate” (Journal of Enzyme Inhibition and Medicinal Chemistry, 2020)
# B1: PaKdsB (2-keto-3-deoxy-D-manno-octulosonate cytidylyltransferase) (Pseudomonas aeruginosa PAO1) (protein)
# chain: MTQAFTVVIPARYASTRLPGKPLQDIAGQPMIQRVWNQARKSAASRVVVATDDERILAACQGFGAEALLTRAEHNSGTDRLEEVASRLGLASDAIVVNVQGDEPLIPPALIDQVAANLAAHPEAAIATLAEPIHEVSALFNPNVVKVATDIDGLALTFSRAPLPWARDAFARDRDSLPEGVPYRRHIGIYAYRVGFLADFVAWGPCWLENAESLEQLRALWHGVRIHVADARENMLPGVDTPEDLERVRRVLGG
# notes: native KdsB with N-terminal tag MHHHHHH EFSQQDSD
# Experiments:
# [1] = target: T1, PaKdsB (2-keto-3-deoxy-D-manno-octulosonate cytidylyltransferase) (Pseudomonas aeruginosa, UniProt Q9HZM5); assay: malachite green enzyme assay (IC50), inhibition kinetics; increased thermostability; assay type: biochemical
# T1 construct: gene kdsB; native KdsB with N-terminal tag MHHHHHH EFSQQDSD
# T1 sequence (Q9HZM5 1-254): B1 chain
# Text: malachite green enzyme assay (IC50), inhibition kinetics; increased thermostability on PaKdsB (2-keto-3-deoxy-D-manno-octulosonate cytidylyltransferase) | The IC50 value determined from the dose-dependent inhibitory curve of Rose Bengal
# [2] = target: T2, BtKdsB (2-keto-3-deoxy-D-manno-octulosonate cytidylyltransferase) (Burkholderia thailandensis, UniProt Q2T0K3); assay: biochemical
# T2 construct: gene kdsB; native KdsB with N-terminal tag MHHHHHH GGGGG
# [3] = test system: O=C(O)C(=O)C[C@@H](O)[C@@H](O)[C@H](O)[C@H](O)CO; assay: purified protein
# [4] = test system: Nc1ccn([C@@H]2O[C@H](COP(=O)(O)OP(=O)(O)OP(=O)(O)O)[C@@H](O)[C@H]2O)c(=O)n1; assay: purified protein
# [5] = substrate: O=C(O)C(=O)C[C@@H](O)[C@@H](O)[C@H](O)[C@H](O)CO; assay: steady-state kinetics (Km), malachite green assay; assay type: biochemical, Pseudomonas aeruginosa; settings: CTP ([…]), Mg2+ ([…] MgCl2) substrate binding site
# [6] = substrate: Nc1ccn([C@@H]2O[C@H](COP(=O)(O)OP(=O)(O)OP(=O)(O)O)[C@@H](O)[C@H]2O)c(=O)n1; assay: steady-state kinetics (Km), malachite green assay; assay type: biochemical, Pseudomonas aeruginosa; settings: KDO ([…]), Mg2+ ([…] MgCl2) nucleotide binding site
# T2 sequence (Q2T0K3 whole entry): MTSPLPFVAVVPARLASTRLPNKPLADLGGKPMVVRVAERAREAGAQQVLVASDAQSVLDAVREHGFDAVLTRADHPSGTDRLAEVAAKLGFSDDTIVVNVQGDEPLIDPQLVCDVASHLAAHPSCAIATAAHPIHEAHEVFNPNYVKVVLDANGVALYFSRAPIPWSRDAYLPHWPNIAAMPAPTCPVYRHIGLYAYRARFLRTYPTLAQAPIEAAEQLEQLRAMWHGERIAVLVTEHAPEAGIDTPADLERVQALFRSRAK
molecule,measurement,setting,value
O=C1OC2(c3cc(I)c(O)c(I)c3Oc3c2cc(I)c(O)c3I)c2c(Cl)c(Cl)c(Cl)c(Cl)c21 [Rose Bengal],IC50,[1],14.7 µM
same,IC50,[2],7.24 µM
BtKdsB (2-keto-3-deoxy-D-manno-octulosonate cytidylyltransferase) (Burkholderia thailandensis E264),Km,[3],56 ± 11 µM
same,kcat,[3],0.116 ± 0.0062 s⁻¹
same,Km,[4],123.9 ± 34 µM
same,kcat,[4],0.142 ± 0.0193 s⁻¹
B1,Km,[5],61 ± 11 µM
same,kcat,[5],0.0758 ± 0.00383 s⁻¹
same,Km,[6],98.3 ± 30 µM
same,kcat,[6],0.132 ± 0.0184 s⁻¹
